Results as given in patent US20150182581A1.

Columns and labels:
Test in all cases: cell-based or functional assay
[1] = target: HIV-1 Nef (full length Nef gene, accession no. GQ184335) cloned in VP16pCDNA+pACT mammalian two-hybrid vector (herpes simplex virus type 1; HIV-1)
[2] = target: ASK1(h) cloned in pEYFP-N1 (human) (UniProt Q99683)
[3] = target: ASK1(g) cloned in pEYFP-N1 (human) (UniProt Q99683)
[4] = target: ASK1i cloned in pEYFP-N1 (human) (UniProt Q99683)
Chain of ASK1i cloned in pEYFP-N1 (human) (Q99683 1-904): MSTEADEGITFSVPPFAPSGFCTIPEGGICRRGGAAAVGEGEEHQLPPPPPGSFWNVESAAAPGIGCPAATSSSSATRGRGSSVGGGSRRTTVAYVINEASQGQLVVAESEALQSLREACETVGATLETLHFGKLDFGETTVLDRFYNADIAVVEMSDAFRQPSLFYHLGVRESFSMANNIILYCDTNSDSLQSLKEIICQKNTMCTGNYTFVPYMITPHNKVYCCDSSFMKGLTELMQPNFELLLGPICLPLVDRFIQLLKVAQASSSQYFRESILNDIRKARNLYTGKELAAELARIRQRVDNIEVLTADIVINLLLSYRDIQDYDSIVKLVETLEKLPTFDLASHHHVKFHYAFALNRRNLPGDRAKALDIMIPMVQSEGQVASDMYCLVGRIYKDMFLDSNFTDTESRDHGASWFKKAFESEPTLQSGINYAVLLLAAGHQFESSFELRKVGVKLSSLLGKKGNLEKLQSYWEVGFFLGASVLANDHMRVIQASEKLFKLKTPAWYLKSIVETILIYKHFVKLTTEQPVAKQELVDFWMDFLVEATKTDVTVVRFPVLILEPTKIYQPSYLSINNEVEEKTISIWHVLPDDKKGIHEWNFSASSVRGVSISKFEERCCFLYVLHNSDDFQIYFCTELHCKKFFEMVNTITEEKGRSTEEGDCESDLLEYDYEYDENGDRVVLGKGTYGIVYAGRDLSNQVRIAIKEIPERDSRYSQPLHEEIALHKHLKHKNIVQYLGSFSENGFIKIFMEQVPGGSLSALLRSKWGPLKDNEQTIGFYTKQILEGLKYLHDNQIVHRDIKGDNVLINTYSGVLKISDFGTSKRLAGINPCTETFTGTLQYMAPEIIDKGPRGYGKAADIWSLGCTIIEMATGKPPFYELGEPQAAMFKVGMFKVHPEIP

Chain of ASK1(g) cloned in pEYFP-N1 (human) (Q99683 1-1050): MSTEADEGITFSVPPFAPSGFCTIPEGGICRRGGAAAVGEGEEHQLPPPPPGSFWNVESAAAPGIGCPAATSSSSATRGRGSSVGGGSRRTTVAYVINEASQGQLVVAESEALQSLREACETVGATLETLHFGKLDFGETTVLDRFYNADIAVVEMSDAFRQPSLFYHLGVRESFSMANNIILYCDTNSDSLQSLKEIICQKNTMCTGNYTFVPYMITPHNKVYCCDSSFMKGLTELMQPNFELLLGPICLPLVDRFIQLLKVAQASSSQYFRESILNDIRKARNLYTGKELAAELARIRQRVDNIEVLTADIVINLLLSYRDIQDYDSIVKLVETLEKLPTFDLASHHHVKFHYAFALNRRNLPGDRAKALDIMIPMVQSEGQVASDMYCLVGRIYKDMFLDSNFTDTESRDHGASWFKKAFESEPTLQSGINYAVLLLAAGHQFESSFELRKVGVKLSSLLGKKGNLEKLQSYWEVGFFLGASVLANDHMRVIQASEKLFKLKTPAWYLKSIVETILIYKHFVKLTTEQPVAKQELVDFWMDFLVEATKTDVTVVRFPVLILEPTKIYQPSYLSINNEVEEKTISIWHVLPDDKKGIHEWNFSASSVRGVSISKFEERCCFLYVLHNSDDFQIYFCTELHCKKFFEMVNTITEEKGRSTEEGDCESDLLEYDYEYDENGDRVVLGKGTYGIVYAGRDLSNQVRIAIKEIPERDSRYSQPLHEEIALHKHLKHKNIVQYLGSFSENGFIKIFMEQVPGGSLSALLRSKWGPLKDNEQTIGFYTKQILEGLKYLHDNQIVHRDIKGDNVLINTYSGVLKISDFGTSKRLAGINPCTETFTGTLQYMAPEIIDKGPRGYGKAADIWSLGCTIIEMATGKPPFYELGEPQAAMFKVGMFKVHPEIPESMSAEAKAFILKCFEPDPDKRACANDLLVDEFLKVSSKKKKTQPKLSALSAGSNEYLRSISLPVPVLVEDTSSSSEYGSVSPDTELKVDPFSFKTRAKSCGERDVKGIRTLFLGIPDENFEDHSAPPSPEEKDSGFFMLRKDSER
Chain of ASK1(h) cloned in pEYFP-N1 (human) (Q99683 320-1050): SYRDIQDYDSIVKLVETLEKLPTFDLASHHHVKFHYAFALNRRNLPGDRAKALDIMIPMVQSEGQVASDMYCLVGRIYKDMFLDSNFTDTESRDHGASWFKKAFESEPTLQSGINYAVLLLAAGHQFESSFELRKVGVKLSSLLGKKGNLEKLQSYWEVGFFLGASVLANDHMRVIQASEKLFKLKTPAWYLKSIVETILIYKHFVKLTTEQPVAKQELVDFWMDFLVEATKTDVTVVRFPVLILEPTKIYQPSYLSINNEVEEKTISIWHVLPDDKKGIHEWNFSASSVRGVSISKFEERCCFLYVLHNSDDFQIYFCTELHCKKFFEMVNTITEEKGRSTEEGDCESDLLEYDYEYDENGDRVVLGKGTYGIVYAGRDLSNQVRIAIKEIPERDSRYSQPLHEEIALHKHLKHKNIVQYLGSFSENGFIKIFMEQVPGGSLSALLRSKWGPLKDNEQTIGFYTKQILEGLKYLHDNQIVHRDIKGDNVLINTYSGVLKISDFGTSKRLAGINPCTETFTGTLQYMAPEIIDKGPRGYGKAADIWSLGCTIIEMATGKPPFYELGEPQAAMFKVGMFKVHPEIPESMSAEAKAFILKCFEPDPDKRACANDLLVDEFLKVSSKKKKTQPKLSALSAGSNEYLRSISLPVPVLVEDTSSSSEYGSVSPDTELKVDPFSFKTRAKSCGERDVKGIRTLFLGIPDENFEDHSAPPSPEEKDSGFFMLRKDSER

Substance: ASK1a (1-1035) cloned in pBIND (from UniProt P04386 1-147; Q99683 1-345)
- luciferase activity compared to negative control pACT-pBIND [1]: 2.28 fold

Substance: ASK1b (959-2010) cloned in pBIND (from UniProt P04386 1-147; Q99683 320-670)
- luciferase activity compared to negative control pACT-pBIND [1]: 1.1 fold

Substance: ASK1d (2581-3152) cloned in pBIND (from UniProt P04386 1-147; Q99683 861-1050)
- luciferase activity compared to negative control pACT-pBIND [1]: 2.89 fold

Substance: ASK1g (contain both ASK1a, ASK1d and in between sequence) cloned in pBIND (from UniProt P04386 1-147; Q99683 1-1050)
- luciferase activity compared to negative control pACT-pBIND [1]: 154 fold

Substance: ASK1h (Contain ASK1d and upstream sequence) cloned in pBIND (from UniProt P04386 1-147; Q99683 320-1050)
- luciferase activity compared to negative control [1]: 8.41 fold

Substance: ASK1i (contain ASK1a and downstream sequence) cloned in pBIND (from UniProt P04386 1-147; Q99683 1-904)
- luciferase activity compared to negative control [1]: 2.72 fold

Substance: ASK1j (contain in between ASK1a and ASK1d fragment) cloned in pBIND (from UniProt P04386 1-147; Q99683 320-904)
- luciferase activity compared to negative control [1]: 0.5 fold

Substance: HIV-1 Nef (accession no. GQ184335) cloned in pEYFP-N1
- annexin V stained cells after co-transfection [2]: 38%
- inhibition of apoptosis [2]: 10%
- % of Annexin V cells means apoptotic cells [3]: 22.1%
- annexin V stained cells after co-transfection [3]: 20%
- inhibition of apoptosis [3]: 52%
- inhibition of apoptosis (annexin V and PI staining) [3]: 50%
- phosphorylation of JNK kinase (western blot, densitometry) [3]: 2 fold
- annexin V stained cells after co-transfection [4]: 26%
- inhibition of apoptosis [4]: 42%
